Reference: patent publication US20250164464A1, “LIVER ORGANOID-DERIVED CULTURED HEPATOCYTES” (OSAKA UNIVERSITY, priority 2022, published 2025)

Key:
hepatic organoid cells [1] = assay: Screening of monolayer culture conditions, sixth day of culture, quantitative RT-PCR (Example 3); type: cell-based, human; settings: versus third day of culture
Experimental: Culture conditions up to the sixth day of culture when hepatic organoid cells were subjected to monolayer culture with a HCM™ medium having added thereto each of various factors were investigated in the same manner as in each of Examples 1 and 2.
The hepatic organoid cells were seeded at 3.0×10^5 cells/well on a collagen-coated 48-well plate, and were differentiated with the HCM™ medium having added thereto the EMTi and BMP7 (50 ng/mL) described in Example 2 until the third day of the culture. […] The respective gene expression levels of ALB and CYP3A4 serving as liver cell markers after 6 days of two-dimensional culture were analyzed by a quantitative RT-PCR method. As a comparative example, the gene expression levels of PHHs cultured only with the HCM™ medium and iPS-HLCs were also identified in the same manner as in Example 1.
(§1) The respective gene expression levels of ALB and CYP3A4 were measured by a quantitative RT-PCR method for the respective cells after their culture. A gene expression level when the hepatic organoid cells were cultured only with the HCM™ medium having added thereto the above-mentioned EMTi was defined as a vehicle. Comparison was performed while the gene expression level of ALB of the cells cultured by using the EMTi and BMP7 (50 ng/mL) in combination on the third day of the culture was defined as 1.0.

hepatic organoid cells [2] = assay: Screening of monolayer culture conditions, ninth day of culture, quantitative RT-PCR (Example 4); type: cell-based, human; settings: EMTi and FGF19 (100 ng/mL)
Experimental: The medium was replaced with a new one on the third day of the culture, and the cells were differentiated with the HCM™ medium having added thereto the EMTi and FGF19 (100 ng/mL) until the sixth day of the culture.
The respective gene expression levels of ALB and CYP3A4 serving as liver cell markers after 9 days of two-dimensional culture were analyzed by a quantitative RT-PCR method.
as §1, with “with the HCM™ medium having added thereto” for “by using”, “FGF19 (100” for “BMP7 (50”, “ng/mL)” for “ng/mL) in combination”, “sixth” for “third”

CYP2B6 = assay: Induction of drug-metabolizing enzyme in hepatocytes (2D differentiated cells) (Example 6); settings: 1 mM for 24 hours; added on third, sixth or ninth day of culture; control DMSO
Experimental: (§2) In this Example, the hepatocytes (2D differentiated cells) of the present invention were evaluated for the induction of a drug-metabolizing enzyme on the third day, sixth day, and ninth day of their culture (FIG. 6A). […] After that, the ΔCt value ((Ct value of GAPDH)-(Ct value of target gene)) of each CYP gene was measured for each cell. As a control, dimethylsulfoxide (DMSO) serving as a solvent for each metabolizing enzyme activator was added thereto.

CYP1A2 = assay: as above; type: cell-based, human; settings: 50 μM for 24 hours; added on third, sixth or ninth day of culture; control DMSO
Experimental: as §2

hepatic organoid cells [3] = assay: Screening of monolayer culture conditions, third day of culture, EMTi and humoral factors, quantitative RT-PCR (Example 2); type: cell-based, human; settings: combined use of EMTi and BMP7 (50 ng/mL); 72 hours; vehicle (EMTi only)=1.0

In the case of fibroblast growth factor 19 [FGF19], the “gene expression level of CYP3A4 increased by a factor of” value (hepatic organoid cells [1]; EMTi and FGF19 (100 ng/ml)) is reported as “about 95”, the “gene expression level of CYP3A4 increased by a factor of” value (hepatic organoid cells [2]; versus sixth day of culture) is reported as “about 40” and the “gene expression level of ALB” value (hepatic organoid cells [2]; versus sixth day of culture (=1.0)) is reported as “increasing tendency”.

For `CCC1(c2ccccc2)C(=O)NC(=O)NC1=O` [phenobarbital], the “gene expression level of CYP2B6 (ΔCt value)” value (CYP2B6) was “further enhanced”.

`COc1ccc2[nH]c([S+]([O-])Cc3ncc(C)c(OC)c3C)nc2c1` (stereo not shown) [omeprazole] was tested, and the “gene expression level of CYP1A2 (ΔCt value)” value (CYP1A2) was “further enhanced”.

B1: bone morphogenetic protein 7 (protein, UniProt P18075 293-431, looked up)
Bone morphogenetic protein 7: STGSKQRSQNRSKTPKNQEALRMANVAENSSSDQRQACKKHELYVSFRDLGWQDWIIAPEGYAAYYCEGECAFPLNSYMNATNHAIVQTLVHFINPETVPKPCCAPTQLNAISVLYFDDSSNVILKKYRNMVVRACGCH
notes: recombinant protein added as a humoral factor
With B1 the “gene expression level of CYP3A4 increased by a factor of” value (hepatic organoid cells [3]) was 50 and the “gene expression level of CYP3A4 increased by a factor of” value (hepatic organoid cells [1]; EMTi and BMP7 (50 ng/ml)) was “about 50”.
